The values below come from the nanobody polyreactivity screen of Harvey et al. (2022).

This series is described as follows: yeast display, Sf9 membrane polyspecificity reagent, FACS + sequencing; frameworks hold sequencing errors. In a few lines:
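Nanobodies from a synthetic yeast display library (Saccharomyces cerevisiae BJ5465), induced 36–48 hours with galactose, were stained 1 hour at 4 °C with 10% biotinylated, detergent-solubilized Sf9 membrane reagent, enriched on streptavidin microbeads, then FACS-sorted. Anti-HA (expression) and streptavidin (reagent binding) fluorescence set low and high (top ~1%) gates. Polyreactivity labels come from the gate of origin. Genes were colony-PCR amplified, MiSeq 2 × 250 sequenced and filtered by CDR length.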
As for “QFQLVESGGGLVQAGASLRLSCAASGNIFPAYAMGWYRQAPGKERELVATISRRGGGTYYADSVKGRFTISRDNAKNTVYLQMNSLKQEDTAVYYCNVAGWTSAYDYWGQGTQVTVSS”, the “polyreactivity (PSR sort gate)” value is reported as “low polyreactivity”.
To “QVQLVESGGGLVQAGGSLRLSCAASGRIFPSYAMGWYRQAPGKERELVAAISDSDGSTYYADSVKGRFTISRDNAKNTVYLQMNSLKPEDTAVYYCAAEGSYPAYDYWGQGTQVTVSS” belongs “low polyreactivity”.
To “QVQLVESGGGLFQAGGSLRLSCAASGRTFTWYAMGWYRQAPGKERELVAAISFSGGSTYYADSVKGRFTISRDNAKNTVYLQMNSLKPEDTAVYYCARPSGDAWEGPRMDYWGQGTQVTVSS” belongs “low polyreactivity”; to “QVQLVESGGGLVQAGGSLRLSCAASGRTFLVYAMGWYRQAPGKDRELVAAISSDGSTHYADSVKGRFTISRDNAKKTVYLQMNSLHPEDTAVYYCARDYYAFSYLYDYWGQGTQVTVSS”, “low polyreactivity”.
For the sequence “QVQLVESGGGLVQAGGSLRLSCAASGLIFYDNMGWYRPAPGKERELVAAISSSGGSTSYADSVKGRFTISRDNAKNTVYLQMNSLKPEDTAVYYCAARLVYEWRRLDYFIAWDYWGQGTQVTVSS”, the “polyreactivity (PSR sort gate)” value is recorded as “low polyreactivity”.
For “QVQLVESGGGLVQAGGSLRLSCAASGSTFVHYGMGWYRQAPGKERELVAAISYSGGSTSYADSVKGRFTISRDNAKNTVYLQMNSLKPEDTAVYYCATVRKRRYDYWGQGTQVTVSS” the value was “low polyreactivity”.
For “QVQLEESGGGLGQAGGSLRLTCAASGSIFRQYAMGWYRQAPGKERDLVATISRSGGSTYYADSVKGRFTISRDNAKNTVYLQLNSLKPEDTAVYYCAASRYNKSYREWWVGSWGQGTQVTVSS” the value was “high polyreactivity”; for “QVQLVESGGGLVQAGGSLRLSCAASGRIFDVYAMGWYRQAPGKERELVATITGSGGGTYYADSVKGRFTISRDNAKNPVYLQMNSLKPEDTADYYCAADYYPTYAYYVSNVGYDYWGQGTQVTVSS”, “low polyreactivity”.
As for “QVQLVESGGGLVQAGGSLRLSCAASGRSFTSNTMGWYRPAPGKERELVAAITSSGGSMYYADSVKGRFTISRDNANNTVYLQMNSLKPEDTAVYYCAADTIGYHYWYDYWGQGTQVTVSS”, the “polyreactivity (PSR sort gate)” value is “low polyreactivity”.
For “QVQLVESGGGLVQAGGSLRLSCAASGSIFVQYDMGWYRQAPGKERELVAAISWSGGSTYYADSVKGRFTISRDNAKNTVYLQMNTLKPEDTAVYYCAARARLWYFSYGYWGQGTQVTVSS” the value was “low polyreactivity”.
To “QVQLVESGGGLVQAGGRLRLSCAASGSTSTLYAMGWYRQAPGKERELVAAISKSGGRTYYADSVKGRFTSSRDNAKNTVDLQMNSLKPEDTAVYYCAALAVYPRRFDYWGQGTQVTVSS” belongs “high polyreactivity”; to “QVQLVESGGGLVQAGGSLRLSCAASGITFVRYAMGWYRQAPGKERELVAAISSGGSTHYADSVKGRFTISRDNAKNTVYLQMYSLKPEDTAVYYCAAQWTESSLYRFGYLGQGTQVTVSS”, “high polyreactivity”.
To “QVQLVESGGGLVQAGGSLRLSCAASGRTFGAYAMGWYRQAPGKERELVASISRSGGTTYYADSVKGRFTISRDNAKNTVYLQMNSLKPEDTAVYYCAAQYVRYGHYYWGQGTQVTVSS” belongs “high polyreactivity”.
With “QVQLVESGVGLVQAGGSLRLSCAASGFLFKYNAMGWYRQAPAKERELVAAISWSGSRTYYADSVKGRFTISRDNAKNTVYLQMNSLKPEDTAVYYCNAVSWRTSRYDYWGQGTQVTVSS”, the “polyreactivity (PSR sort gate)” value is recorded as “high polyreactivity”.
Consider “QVQLVESGGGLVQAGGSLRLSCAASGRTIYYYAMGGYRQAPGKEREFVAAISWHGGSTYYADSVKGRFTISRDNAKNTVYLQMNSLKPEDTAVYYCAAERYDRVGFDYWGQGTQVTVSS”, for which the “polyreactivity (PSR sort gate)” value is given as “low polyreactivity”.
To “QVQLVESGGGLVQAGGSLSLSSAATGSNFGRNAMGWYRQATGKEREFVAAISQRGGRTYYSDSVKGRFTISRDNAKNTVYLQMNSLKPEETAVYYCAATYTRVPNRFYYWGQGTQVTVSS” belongs “high polyreactivity”; to “QVQLVESGGGLVQAGGSLRLSCAASGLIFYPYAMGWYRQAPGKERELVAGISSSGDSTYYADSVKGRFTISRDNAKNTVYLEMNSLKPEDTAVYYCNADGWYFEYWGQGTHVTVSS”, “low polyreactivity”; to “QVQLVESGGGLVQAGGSLSLSCAAMGWYRQAPGKERELVATITWSGGSTYYADSVKGRFTISRDNAKNPVYLQMNSLKPEDTAVYYCNARATLLSPANTIRGYDYWGQGTQVTVSS”, “low polyreactivity”.
With “QVQLVESGGGLVQAGGSLRLSCAASGSISGYNAMGWYRPAPGKERELVAVITTDGSTNYADSVKGRFTISRDNAKNTVYLQMNSLKPEDTAVYYCNTDDGWRLLWEYDYWGQGTQVTVSS”, the “polyreactivity (PSR sort gate)” value is “low polyreactivity”.
For “QGQLVESGGGLDQAGGSLRLSCAASGSIFHGNAMGWYRQAPGKERELVAVISDGGYTDYADSVKGRFTISRDNAKNTVYLQMNSLKPEDTAGYYCNADYDTQYFYRNPIYYLSGYDYRGQGTQVTVSS” the value was “low polyreactivity”.
For “QVQLVESGGGLVQAGGSLRLSCAASGSIFGSYAKGCYIQAPGKERELVAAITRAGSTNYADSVKGRFTISRDNGKNTVYLQMNSLKPEDTAVYYCNATGKSTYVLSPVPGAYDYWGQGTQVTVSS” the value was “low polyreactivity”; for “QVQLVESGGGLVQAGGSLRLSCAASGSTFPGYAMGWYRQAPGKERELVAAISWSGGNTYYADSVKGRFTISRDNAKNTVYLQMNSLKPEDTAVYYCNAAGRRYKFDYWGQGTQVSVSS”, “high polyreactivity”.
Turning to “QVQLVESGGGLVQAGGSLRLSCAASGFTFAGNAMGWYRQAPGKERELVAGISRRGGNTYYADSVKGRFTISRDNAKNTVYLQMISLKPEDTAVYYCAARARRRYYYWGQGTQVTVSS”, the “polyreactivity (PSR sort gate)” value is “high polyreactivity”.
For “QVQLVESGGGLVQAGGSLRLSCAASGSTCWSNAMGWYRQAPGKERELVAGISWSDGSTYADSVKGRFTISRDNAKNTVYLQMNSLKPEDTAVYYCAAADNYRGYTYEYDYWGQGTQVTVSS” the value was “low polyreactivity”.
For “QVQLVESGGGLVQAGGSLRLSCAAYGNTFEGYAKGWYRQAPGKERELVAAISGSSGSTYYADSVKGRFTISRDNAKNTVYLQMNSLKPEDTAVYYCAAYSYYPPYDYWGQGTQVTVSS” the value was “high polyreactivity”.
To “QVQLVESGGGLVQAGGSLRLSCAASGFTVGSNAMGWYRQAPGKERELVAAISRSSGRTYYADSVKGRFTISRDNAKNTVDLQMNSLKPEDTAVYYCAAQTRYRISLQYYYWGQGTQVTVSS” belongs “high polyreactivity”; to “QVQLVESGGGLVQAGGSLRLSCAASGFTFDKYAMGWYRQAPGKERELVAAISSSGGSTYYADSVKGRFTISRDNAKNTVYLQMNSLKPEDTAVYYCATGRIRWYARYDYWGHGTQVTVSS”, “high polyreactivity”.
Regarding “QVQLVESGGGLVQAGGRLRLSCAASGSTIKFNAMGWYRQAPGKERELVAAISRGGRTNYADSVKGRFTISRDNAKYTVYLQMNSLKPEDTAVYKCAKDVAGLFHVGALYYYWGQGTQVTVSS”, the “polyreactivity (PSR sort gate)” value is recorded as “low polyreactivity”.
For the sequence “QVQLVESGGGLVQAGGSLRLSCAASGSTFNSYTMGWYRKAPGKERELVAAITLSGGRTYYADSVKGRFTISRDNAKNTVYLQMNSLKPEDTAVYYCAAYCRASWERDYWGQGTQVTVTS”, the “polyreactivity (PSR sort gate)” value is listed as “low polyreactivity”.
For “QFQLVESGGGLVQAGGSLRLSCAASGFIIEYNTMGWYRQAPGKERELVAAISFIGGRTYYADSVKGRFTISRDNAKNTVYLQMNSMKPEDNAVYYCKTRDGGYYCGARRVLYYYWGQGTQVTLSS”, the “polyreactivity (PSR sort gate)” value is reported as “high polyreactivity”.
As for “QVQLVESGGGLVQAGGSLRLSCAASGRIFFANTMGWYRQAPGKERELVAAISLSSGTTYYADSVKGRFTISRDNAKNTVYLQMNSLKPDETAVYYCAARGYSHVASRLYYYWGQGTQVTVSS”, the “polyreactivity (PSR sort gate)” value is reported as “high polyreactivity”.
Take “QVQLVESGGGLVQAGGSLRLSCAASGFIFTPYTMGWYSQAPGKERELVAAITDGSSTYYADSVKGRFTISRDNAKNTVYLQMNSLKPEDTALYYCNADGKPPYNSWLYDYWGQGTQVTVTS”: the “polyreactivity (PSR sort gate)” value was “low polyreactivity”.
As to “QVQLVESGGGLVQAGGSLRLSCAASGFTFSAYAMGWYRQAPGKERELVASITRSGGSTYYADSVKGRFTISRDNAKNTVYLQMNCLKPEDTAVFYCAKSDRPWWGYYYQFDYWGQGTQVSVSS”, the “polyreactivity (PSR sort gate)” value is listed as “low polyreactivity”.
For “QDQLVESGGGLVQAGGSLRLSCAASGSTFVKNAMGWYRQAPGKERELVATISKSAGRTYYADSVKGRFTISRDNAKNTVYLQMNSLKPEDTAVYYCNVVQKRDFDYWGQGTQVTVSS”, the “polyreactivity (PSR sort gate)” value is “high polyreactivity”.
To “QVQLVESGGGLVQAGGSLRLSCAASGYIFWENAMGWYRPAPGKERELVAAITVSGGGTYYADSVKGRFTISRDNAKNTVYLQRNSLKPEDTAVYYCAADEDNPWLWFYYWGQGTQVTVSS” belongs “low polyreactivity”; to “QVQLGESCGRLVQAGGSLRLSCADSGLTFSVYAMGWYRQSPGKETELVAAISYSGDSTYADSVKGRFTISRDNAKNTVYLQMNSLKPEDTAGYYCHAPLVHQGYRRWYDYWGQGTQVTVSS”, “low polyreactivity”.
For “QVQLVESGGGLVQAGGSLRLSCAASGRTSAINAMGWYRQAPGKERELVADITRTGGTYADSVKGRFTISRDNAKNNVYLQMNSLKPEVTAVYYCAAVGAWRFDYWGQGTQVTVSS” the value was “high polyreactivity”; for “QVQLVESGGGLVQAGGSLRLSCAASGRTLYGYAMGWYRQAPGKERELVAAISESDGSTYADSVKGRFTISRDNAKNTVYLQMNSLKPEDTAVYYCAADYYWYALQDGYYTYGYTYDYWGQGTQVTVSS”, “low polyreactivity”; for “QFQLVESGGGLVQAGGSLRLSCAASGRIFYVYGMGWYRQAPGKERELVAAISKRGDNTYYADSVKGRFTISRDNAKNTVYLQMNSLKPEDTAVYYCNVKRYGGRSDYWGQGTQVTVSS”, “high polyreactivity”.
For “QVQLVESGGGLVQAGGSLRLSCAASGRTFLSYAMGWYRQAPGKEREFVASITLSGGSTYYADSVKGRFTISRDNAKNTVYLQMNSLKPEDTAVYYCNAELYWLPYDYWGQGTQVTVSS” the value was “low polyreactivity”; for “QLQLVESGGGLVQAGGSLRLSCAASGRTFWYYTMGWYRQAPGKERELVAAISSGGRTNYADSVKGRFTISLDNAKNTVYLQMNSLKPEDTAVYYCATSRYYKYVERDYWGQGTLVTVSS”, “high polyreactivity”.
